Source: paper PMC6938348
Like-named read-outs stand apart in the source and are kept apart here. One block for each substance: values may come before it.

Assays:
[1] = molecular target: Her2 on cells (SKOV3, JIMT-1, MCF7) (human (endogenous in SKOV3, JIMT-1, MCF7)) (UniProt P04626); test: flow cytometry on cells; saturation binding of full-size antibodies on live high-Her2 SKOV3 cells, 4°C 2 h, 0 to 200 nM or 1 μM, washed, anti-human Fc AlexaFluor488-(Fab')2 detection; apparent KD
[2] = molecular target: soluble Her2 ectodomain (Homo sapiens (assumed; species and source not stated)) (UniProt P04626); test: SPR; antibody captured on an anti-hFc CM-5 surface, soluble Her2 ectodomain flowed (monovalent binding); single cycle kinetics in duplicate, 25°C, PBS with […] EDTA and 0.05% Tween 20; 1:1 binding model; Biacore T200
[3] = molecular target: Her2 on cells (SKOV3, JIMT-1, MCF7) (human (endogenous in SKOV3, JIMT-1, MCF7)) (UniProt P04626); test: flow cytometry on cells; saturation binding of full-size antibodies on live low-Her2 MCF7 cells, 4°C 2 h, 0 to 200 nM or 1 μM, washed, anti-human Fc AlexaFluor488-(Fab')2 detection; apparent KD
[4] = molecular target: Her2 on cells (SKOV3, JIMT-1, MCF7) (human (endogenous in SKOV3, JIMT-1, MCF7)) (UniProt P04626)
[5] = molecular target: Her2 on cells (SKOV3, JIMT-1, MCF7) (human (endogenous in SKOV3, JIMT-1, MCF7)) (UniProt P04626); remark: listed apart in the source
[6] = molecular target: Her2 (human (endogenous in SKOV3 and JIMT-1)) (UniProt P04626)
[7] = molecular target: Her2 (human (endogenous in SKOV3 and JIMT-1)) (UniProt P04626); remark: listed apart in the source
[8] = molecular target: Her2 (human (endogenous in SKOV3 and JIMT-1)) (UniProt P04626); remark: listed apart in the source
[9] = molecular target: Her2 (human (endogenous in SKOV3 and JIMT-1)) (UniProt P04626); remark: listed apart in the source
[10] = molecular target: Her2 (human (endogenous in SKOV3 and JIMT-1)) (UniProt P04626); remark: listed apart in the source
[11] = molecular target: Her2 (human (endogenous in SKOV3 and JIMT-1)) (UniProt P04626); remark: listed apart in the source
[12] = molecular target: Herceptin full-size antibody variant 7–6 (H-Y57A, L-N30D); test: SPR; antibody captured on an anti-hFc CM-5 surface, soluble Her2 ectodomain flowed (monovalent binding); single cycle kinetics in duplicate, 25°C, PBS with […] EDTA and 0.05% Tween 20; 1:1 binding model; Biacore T200
[13] = molecular target: bH1 full-size antibody variant 14–13 (H-D98W, H-G99D); test: as above
[14] = molecular target: bH1 full-size antibody variant 15–13 (H-G99D); test: as above
[15] = molecular target: Herceptin full-size antibody variant 7–5 (H-Y57A, L-F53N, L-Y92A); test: as above
[16] = molecular target: bH1 full-size antibody variant 16–13 (H-G99R); test: as above

- Kd [1]: 1.98 nM
- Kd [2]: 2.32 nM
- Kd [3]: 0.39 nM
Substance: Herceptin full-size antibody variant 2–4 (L-Y92A)

- Kd [1]: 2.58 nM
- Kd [2]: 6.85 nM
- Kd [3]: 0.51 nM
Substance: Herceptin full-size antibody variant 2–6 (L-N30D)

- Kd [1]: 2.27 nM
- Kd [2]: 1.6 nM
- Kd [3]: 0.52 nM
Substance: Herceptin full-size antibody variant 7–1 (H-Y57A)

- Kd [1]: 3.5 nM
- Kd [3]: 594 nM
Substance: Herceptin full-size antibody variant 7–5 (H-Y57A, L-F53N, L-Y92A)
- IC50 of cytotoxicity, antibody directly conjugated to DM1, SKOV3 cells [4]: 2.01 nM
- IC50 of cytotoxicity, antibody directly conjugated to PNU, SKOV3 cells [4]: 2.08 nM
- IC50 of cytotoxicity, indirect ADC screen (DM1-conjugated secondary antibody), JIMT1 cells [5]: 15.7 nM
- IC50 of cytotoxicity, indirect ADC screen (MMAE-conjugated secondary antibody), JIMT1 cells [5]: 11000 nM
- IC50 of cytotoxicity, indirect ADC screen (MMAE-conjugated secondary antibody), MCF7 cells [5]: 32.4 nM
- IC50 of cytotoxicity, indirect ADC screen (MMAE-conjugated secondary antibody), SKOV3 cells [5]: 0.204 nM

- Kd [12]: 43.2 nM
- Kd [13]: 253 nM
- kon [13]: 78000 M⁻¹ s⁻¹
- Kd [14]: 298 nM
- Kd [15]: 68.1 nM
- Kd [16]: 417 nM
- kon [16]: 120000 M⁻¹ s⁻¹
Substance: soluble Her2 ectodomain (from UniProt P04626 23-652) (domain or fragment)

Further lines, the substance ahead of its results:

Substance: Herceptin full-size antibody variant 2–3 (L-F53N)
- Kd [1]: 1.95 nM
- Kd [2]: 2.1 nM
- Kd [3]: 0.3 nM

Substance: Herceptin full-size antibody variant 2–5 (L-F53N, L-Y92A)
- Kd [1]: 1.98 nM
- IC50 of cytotoxicity, antibody directly conjugated to DM1, SKOV3 cells [4]: 0.161 nM
- IC50 of cytotoxicity, antibody directly conjugated to PNU, MCF7 cells [4]: 4.72 nM
- IC50 of cytotoxicity, antibody directly conjugated to PNU, SKOV3 cells [4]: 0.138 nM
- Kd [2]: 22.6 nM
- IC50 of cytotoxicity, indirect ADC screen (DM1-conjugated secondary antibody), JIMT1 cells [5]: 8.7 nM
- IC50 of cytotoxicity, indirect ADC screen (DM1-conjugated secondary antibody), MCF7 cells [5]: 8.1 nM
- IC50 of cytotoxicity, indirect ADC screen (MMAE-conjugated secondary antibody), JIMT1 cells [5]: 24.4 nM
- IC50 of cytotoxicity, indirect ADC screen (MMAE-conjugated secondary antibody), MCF7 cells [5]: 20.6 nM

Substance: Herceptin full-size antibody variant 7-5 (H-Y57A, L-F53N, L-Y92A)
- EC50 of internalization, direct (pHAb-conjugated antibody variant), SKOV3 cells, 37°C, 18 h, high content imaging [6]: 19.2 nM
- EC50 of internalization, indirect (antibody variant + pHAb-secondary antibody), SKOV3 cells, 37°C, 18 h, high content imaging [6]: 1.99 nM

Substance: Herceptin full-size antibody variant 7–3 (H-Y57A, L-F53N)
- Kd [1]: 2.34 nM
- Kd [2]: 16.1 nM
- Kd [3]: 0.67 nM

Substance: Herceptin full-size antibody variant 7–4 (H-Y57A, L-Y92A)
- Kd [1]: 2.41 nM
- Kd [2]: 18 nM
- Kd [3]: 0.47 nM

Substance: Herceptin full-size antibody variant 7–6 (H-Y57A, L-N30D)
- Kd [1]: 3.16 nM
- Kd [3]: 0.95 nM

Substance: Herceptin full-size antibody variant 11-9 (H-D98F, H-D31M, L-D28K)
- EC50 of internalization, direct (pHAb-conjugated antibody variant), JIMT-1 cells, 37°C, 18 h, high content imaging [7]: 70 pM
- EC50 of internalization, direct (pHAb-conjugated antibody variant), SKOV3 cells, 37°C, 18 h, high content imaging [7]: 0.32 nM
- EC50 of internalization, indirect (antibody variant + pHAb-secondary antibody), SKOV3 cells, 37°C, 18 h, high content imaging [7]: 0.44 nM

Substance: Herceptin full-size antibody variant 12-9 (H-D98F, H-D31K, L-D28K)
- EC50 of internalization, direct (pHAb-conjugated antibody variant), JIMT-1 cells, 37°C, 18 h, high content imaging [8]: 70 pM
- EC50 of internalization, direct (pHAb-conjugated antibody variant), SKOV3 cells, 37°C, 18 h, high content imaging [8]: 0.41 nM
- EC50 of internalization, indirect (antibody variant + pHAb-secondary antibody), SKOV3 cells, 37°C, 18 h, high content imaging [8]: 0.41 nM

Substance: WT Herceptin full-size antibody (variant 2-1, Parent 1)
- EC50 of internalization, direct (pHAb-conjugated antibody variant), JIMT-1 cells, 37°C, 18 h, high content imaging [9]: 0.21 nM
- EC50 of internalization, direct (pHAb-conjugated antibody variant), SKOV3 cells, 37°C, 18 h, high content imaging [9]: 0.32 nM
- EC50 of internalization, indirect (antibody variant + pHAb-secondary antibody), SKOV3 cells, 37°C, 18 h, high content imaging [9]: 0.55 nM

Substance: bH1 full-size antibody variant 14-13 (H-D98W, H-G99D)
- EC50 of internalization, direct (pHAb-conjugated antibody variant), SKOV3 cells, 37°C, 18 h, high content imaging [10]: 59 nM
- EC50 of internalization, indirect (antibody variant + pHAb-secondary antibody), SKOV3 cells, 37°C, 18 h, high content imaging [10]: 3.75 nM

Substance: bH1 full-size antibody variant 16-13 (H-G99R)
- EC50 of internalization, direct (pHAb-conjugated antibody variant), SKOV3 cells, 37°C, 18 h, high content imaging [11]: 74.9 nM
